Data on one molecule can be found in article PMC10093686, “Structural insights into acetylated histone ligand recognition by the BDP1 bromodomain of Plasmodium falciparum” (International journal of biological macromolecules, 2022).

No end group written: not given here.

For this test, the target named is PfBDP1-BRD (residues 303–488 or 333–456), bromodomain of P. falciparum Bromodomain Protein 1, as used in ITC (P. falciparum) (UniProt Q8IJ72). Description: ITC; histone peptide (2.5–5.0 mM) in the syringe, PfBDP1-BRD (303–488 or 333–456; 100–200 μM) in the sample cell; 5°C; 20 mM sodium phosphate pH 7.5, 150 mM NaCl, 1 mM TCEP; 1:1 binding model, single set of identical sites.

One may read the Kd as the free concentration of one partner at which half of the binding sites on the other are occupied at equilibrium, for simple one-to-one binding. A low value points to higher affinity. What is called stoichiometry N is a count of units in the complex or per binding partner. SGK(Ac)GPAQK(Ac)SQAAK(Ac)K(Ac)TAGK(Ac)TLGPR [H2B.ZK3acK8acK13acK14acK18ac histone peptide, penta-acetylated histone H2B.Z] gave a dissociation constant (Kd) of 1300 µM and a stoichiometry N of 1.
